Experimental data taken from patent US20150064714A1, “Polypeptides containing a modified fragment of the peptide IF1” (LIFESEARCH, priority 2013, published 2015).
No end group written: not given here. *: point of attachment. MTSL = spin label, CC1(C)C=C(CS*)C(C)(C)N1[O]

Tests used:
[1] = test system: F1-ATPase or SMP (F0F1-ATPase); assay: Measurement of the affinity of a labelled polypeptide for the ATPase (kinetics of inhibition of ATP hydrolysis, NADH disappearance at 340 nm); format: biochemical; settings: kinetic results; 25° C., pH 6.5; polypeptide 15 nM to 2 μM
Experimental: The hydrolysis of ATP by F1-ATPase or SMP (F0F1-ATPase) was measured according to the reaction illustrated below by following the disappearance of NADH over time at 340 nm.
This reaction is carried out in a thermostatically controlled vessel (25° C.) in which the reaction medium pH 6.5 (50 mM MES, 20 mM KCl, 1 mM MgCl2, 0.4 mM NADH, 1 mM PEP, 20 units/mL pyruvate kinase and 50 unit/mL lactate dehydrogenase) is stirred. In the case of measurement of hydrolysis of ATP by the SMPs, the vessel also contains 3 μM antimycin and 3 μM FCCP.
After recording for 2 to 4 minutes, a labelled polypeptide of the invention is injected into the measurement vessel at a concentration range of 15 nM to 2 μM and the ATPase activity decreases. The recordings are analysed and adjusted with a decreasing monoexponential function (equation 1 shown below) corresponding to the decline in the ATPase activity.
By plotting the values of kapp obtained as a function of the concentration of IF1, the formation rate constant (kon) and dissociation rate constant (koff) of the inhibited complex F1ATPase/IF1 are determined according to the following equation: kapp=kon[I]+koff
The relationship between the ratio V(I)/V(0) and the concentration of labelled polypeptide of the invention are linked according to the following equation:
V(I)/V(0)=Vr+(1−Vr)/(1+[I]/k1),
in which Vr is the fraction of V0 insensitive to IF1 inhibition.

[2] = biological target: ATPase (Homo sapiens, UniProt P06576+P25705); settings: fragment of IF1 of less than 34 amino acids in a fusion protein; cited from earlier work
[3] = biological target: F1-ATPase (Bos taurus, UniProt P00829+P19483); settings: point mutations of bovine IF1; cited from earlier work

Molecule: SEQ ID NO: 25: cysteine-containing peptide: cysteine inserted into the median region of SEQ ID NO: 9, for labelling with the spin label MTSL (SEDSFVKRARATEDWFVRQREKEC(MTSL)QLRHLKEQLEKQRKK)
- affinity for ATP synthase compared to that of natural IF1 [1]: better affinity for ATP synthase

Molecule: fragment constituted by amino acid 14 to amino acid 46 of IF1: fragment of the protein IF1 in a fusion protein of US 2004/0072739 (AVRDAGGAFGKREQAEEERYFRARAKEQLAALK; UniProt P01096 39-71, looked up, fragment)
- ATPase inhibiting activity [2]: better ATPase inhibiting activity

B1: Y33W: modified bovine IF1 containing the point mutation Y33W (Bason et al.) (protein, UniProt P01096 26-109, looked up, variant Y33W)
ATPase inhibitor, …: GSESGDNVRSSAGAVRDAGGAFGKREQAEEERWFRARAKEQLAALKKHHENEISHHAKEIERLQKEIERHKQSIKKLKQSEDDD
- affinity for F1-ATPase compared to the natural bovine IF1 [3]: better affinity
